{"source": "paper PMC3196492", "about": "“APOE Genotype-Function Relationship: Evidence of −491 A/T Promoter Polymorphism Modifying Transcription Control but Not Type 2 Diabetes Risk”", "target": "ATF4 (human (ORF from 293 cells), UniProt P18848 1-351)", "sequence (P18848 whole entry)": "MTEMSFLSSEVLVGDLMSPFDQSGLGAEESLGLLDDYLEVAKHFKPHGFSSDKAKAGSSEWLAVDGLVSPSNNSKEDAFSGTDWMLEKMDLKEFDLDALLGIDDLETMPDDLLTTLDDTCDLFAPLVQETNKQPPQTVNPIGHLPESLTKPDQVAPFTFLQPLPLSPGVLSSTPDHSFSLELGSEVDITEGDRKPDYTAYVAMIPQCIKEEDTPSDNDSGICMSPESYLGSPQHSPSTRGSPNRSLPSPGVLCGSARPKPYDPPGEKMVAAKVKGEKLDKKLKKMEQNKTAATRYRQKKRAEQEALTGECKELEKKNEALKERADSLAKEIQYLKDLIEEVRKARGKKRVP", "experiment": "EMSA; 1.2 uM ATF4, 3 nM probe; excess unlabeled probe competes completely; supershift with anti-ATF4 at 0.7 uM ATF4; 20 ul EMSA, 3 nM DIG-labeled probe, Roche kit instructions; buffer, salt, pH and temperature not stated", "details": "protein: recombinant; tags: His-tag; chain copies: 2; label: DIG; blunt", "data": [{"binder": "APOE promoter -491A probe (-521 to -461) (dsDNA) DNA 1: GTTTCACCATGTTGGCCAGGCTGGTCTCAAACTCCTGACCTTAAGTGATTCGCCCACTGTG DNA 2: CACAGTGGGCGAATCACTTAAGGTCAGGAGTTTGAGACCAGCCTGGCCAACATGGTGAAAC", "values": [{"measurement": "binding result", "value": "binds"}]}]}
